In the supplement of paper PMC12764529:
± gives the half width of the 95% confidence interval.

Legend:
[1] = folding stability dG unfold from trypsin proteolysis; higher = more stable
Outline: (§1)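 Mini-proteins designed to be under 80 residues and free of cysteine were carried in a PA-tagged cDNA display construct and digested with trypsin and with chymotrypsin. Each protease was applied at 11 threefold-diluted concentrations, alongside a no-protease condition, before sequencing. K50 came from Bayesian fitting of the sequencing counts, and unfolding free energy was obtained by comparing it with a sequence-predicted unfolded-state K50 and a shared folded-state K50, for each protease separately or for both together. Designs were retained only if their AlphaFold2 dimer inter-PAE exceeded 15.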

[2] = folding stability dG unfold (combined trypsin and chymotrypsin); higher = more stable
Outline: as §1

[3] = folding stability dG unfold from chymotrypsin proteolysis; higher = more stable
Outline: as §1

| Sequence | folding stability dG unfold [1] [kcal/mol] | folding stability dG unfold [2] [kcal/mol] | folding stability dG unfold [3] [kcal/mol] |
| --- | --- | --- | --- |
| SAGGKKKYKLIIKIKFKKGDIDKAKKEVEAIANKIKDEFEKKGVKVKVKVSYDKDNDIVYIEVEFEVPSAGG [r13_755_TrMRF] | 3.36 ± 0.12 | 4.24 ± 0.14 | 4.43 ± 0.082 |
| SAGGKKMTFKVDEIQTHGNQIMIPIRFPDGHPFPMQIDDPEQLDNLKPGEEIKIEFRPDGSFRIEWRSAGGS [r16_2_TrROS] | 1.45 ± 0.066 | 1.55 ± 0.17 | 1.65 ± 0.18 |
| SAGGKKPERVKITIMIPFDDPDKLRNFLRNHGFKVDEVEPNKEGMLAVEFEFPGYEIEIIIMDPGAMSAGGS [r16_170_TrROS] | 2.83 ± 0.16 | 3.35 ± 0.14 | 3.74 ± 0.087 |
| SAGGKKTFKVTLTLELKVERDEETGELKTETLTLTLTIEAESEEEAEKALKELLEKLELSPELKKALSAGGS [r16_40_TrROS_Hall] | 2.17 ± 0.082 | 3.4 ± 0.097 | 3.76 ± 0.064 |
| SAGGKKVFTLDELKKLAEELNIEKIEVKEDEEGIYTFTFTDLAKKTGKEVTIKIVRNKNGELLVEIEPSAGG [r13_163_TrROS_Hall] | 1.78 ± 0.074 | 2.53 ± 0.14 | 2.9 ± 0.087 |
| SAGGKKVKIKVTIVIKVEPGESVEEIAKKLAEELGLKVEVKVEVVKRKDGSLYVVIEVEIELPEELKPSAGG [r13_590_TrROS_Hall] | 2.3 ± 0.16 | 2.85 ± 0.56 | 3.18 ± 0.24 |
| SAGGKKVVIVFDVENLTPEQIRELVRKAIESLPDPENVVIVANVTSPATVEELAELAKEHPEVKFVVGSAGG [r13_718_TrMRF] | 3.79 ± 0.11 | 3.56 ± 0.12 | 3.45 ± 0.085 |
| SAGGKLTELIRSLFEKLNVPLEPLETGPNSAIFRFPGKPGVFELPGNSRIVIFEDGLVVVVAPPNDLSAGGS [r8_297_TrMRF] | 1.51 ± 0.1 | 1.61 ± 0.081 | 1.57 ± 0.093 |
| SAGGKLTITLPPGVKEVKIEVDKETNEVKVTVTVEVTDENGKKHKVTRTFTFKLEDGETVTVTVTLPSAGGS [r16_552_TrROS_Hall] | 4.42 ± 0.27 | 5.44 ± 0.28 | 5.43 ± 0.13 |
| SAGGKLTLEEIKALLKEGKEYSLEELLKKIAELLNLTVELEEEPEKVTVVKVDPETGEIVEEKEIDLSAGGS [r8_105_TrROS_Hall] | 2.01 ± 0.1 | 2.28 ± 0.11 | 2.44 ± 0.036 |
| SAGGKLTPEEIEELAKKLAEELRKEGKEVEIEVEIEVDGKLIKIKMKIDPKTKKIEIVKIEVYPKEDLSAGG [r13_37_TrROS_Hall] | 3.9 ± 0.14 | 3.58 ± 0.21 | 2.93 ± 0.092 |
| SAGGKMKLEVEILENEGTILVRFHFGDKVLEIPLPFPNLTPEDVKEAAEEIAKKLKEEYNIEEVEIESAGGS [r16_249_TrMRF] | 2.33 ± 0.13 | 2.64 ± 0.28 | 3.18 ± 0.23 |
| SAGGKMVIVKIRIKERKVKVEKTKDGKEKKVEVEEKEKEITLIVEGSEEEVKKLAEELEKLGLEVEVISAGG [r13_452_TrROS_Hall] | 1.2 ± 0.063 | 2.28 ± 0.14 | 2.52 ± 0.079 |
| SAGGKNDVKTKTYEIEKDGGKITIEFEKLPDGKYKATVTYPDGKKETLVFDLGEGKEEEFAKEIAKKKSAGG [r13_296_TrMRF] | 1.46 ± 0.12 | 2.48 ± 0.38 | 3.05 ± 0.067 |
